Tests used:
[1] = target: T1, recombinant human BCMA-his fusion protein (ACRO Biosystem, Cat. No. BCA-H522y) (human, UniProt Q02223 1-54); test: competitive ELISA, coated huBCMA-his, competitor APRIL-biotin
T1 construct: extracellular domain; Bought protein; also called huBCMA-his; hu BCMA-his; not shown: His tag
T1 sequence (looked up): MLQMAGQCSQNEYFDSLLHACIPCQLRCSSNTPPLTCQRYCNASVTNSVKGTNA
Description: (§1) The 96-well microplate was treated with 100 μL of 0.5 μg/mL huBCMA-his in PBS and incubated overnight at 4° C. The plate was then washed thrice with PBS washing buffer containing 0.1% of Tween-20 and blocked with 300 μL of PBS containing 1% of BSA for 2 h. 100 μL of each BCMA antibody was added to the plate. […] The plate was incubated at 37° C. for 1 h, and unbound secondary antibody was washed with PBS washing buffer containing 0.1% of Tween-20. The TMB chromogenic solution was added at 100 μL/well. After a 5-min reaction at room temperature, 2 M H₂SO₄ was added at 100 μL/well to terminate the reaction. The microplate was placed on a microplate reader (Molecular Devices, SPECTRA Max plus 384) and the absorbance OD450 value was read at 450 nm wavelength.

[2] = target: T1, recombinant human BCMA-his fusion …; test: competitive ELISA, coated huBCMA-his, competitor 83A10-biotin, antibody at 7 µg/mL
[3] = target: T2, recombinant human BCMA-mFc fusion protein (human; mouse); test: indirect ELISA, coated antigen
T2 construct: also called huBCMA-mFc
T2 chain: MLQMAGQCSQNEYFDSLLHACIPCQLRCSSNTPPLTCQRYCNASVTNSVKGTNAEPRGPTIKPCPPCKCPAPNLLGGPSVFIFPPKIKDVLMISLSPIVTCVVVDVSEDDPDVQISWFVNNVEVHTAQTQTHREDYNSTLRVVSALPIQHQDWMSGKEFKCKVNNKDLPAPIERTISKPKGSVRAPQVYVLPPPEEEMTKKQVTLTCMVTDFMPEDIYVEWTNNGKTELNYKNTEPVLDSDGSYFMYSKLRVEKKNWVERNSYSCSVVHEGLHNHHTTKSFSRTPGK
Description: (§2) Procedures: Human, mouse and monkey BCMA antigens were prepared into 0.5 μg/mL coating solutions with PBS buffer. The coating solutions were added to a microplate at 100 μL/well and incubated at 4° C. overnight. The residual coating solution was discarded before 3% BSA was added at 300 μL/well, and the plate was blocked for 3 h at room temperature. The microplate was washed once with PB ST (PBS containing 0.1% of TWEEN 20) at 300 μL/well. The human-mouse chimeric monoclonal antibodies were serially 3-fold diluted from 10 μg/mL to the 9th concentration. The dilutions were added to the microplate at 100 μL/well. After a 1-h incubation at room temperature, the microplate was washed thrice with PB ST at 300 μL/well. The mouse anti-human IgG Fc antibody [HRP] mAb was 25,000-fold diluted with 1% BSA-PBST and added at 100 μL/well. After another 1-h incubation at room temperature, the microplate was washed thrice with PBST at 300 μL/well and dried. The TMB chromogenic solution was added at 100 μL/well. After a 5-min reaction at room temperature, 2 M H₂SO₄ was added at 100 μL/well to terminate the reaction. The microplate was placed on a microplate reader (Molecular Devices, SPECTRA Max plus 384) and the absorbance OD450 value was read at 450 nm wavelength.

[4] = target: T3, human BCMA on cells (NCI-H929, U266B1, HEK293 huBCMA) (human, UniProt Q02223 1-184); test: flow cytometry on U266B1 cells
T3 construct: whole, on cells; also called cell surface BCMA antigen
T3 sequence (looked up): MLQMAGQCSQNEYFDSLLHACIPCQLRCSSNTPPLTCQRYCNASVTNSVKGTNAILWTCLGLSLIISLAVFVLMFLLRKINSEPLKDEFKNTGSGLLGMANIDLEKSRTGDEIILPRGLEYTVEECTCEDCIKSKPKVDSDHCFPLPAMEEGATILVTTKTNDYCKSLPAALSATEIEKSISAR
Description: (§3) Procedures: The cells were resuspended in PBS, and the cell density was adjusted to 2×10^5 cells/well. Human-mouse chimeric monoclonal antibodies were added to a 96-well plate at 50 μL/well and serially 3-fold diluted from 3000 nM to the 9th concentration. The plate was incubated for 1 h at 4° C. 150 μL of precooled PBS containing 1% of FBS was added into the 96-well plate after the co-incubation with the primary antibody was finished. The mixtures were centrifuged at 300×g for 5 min and the supernatants were discarded. The above procedures were repeated once. The fluorescent secondary antibody PE anti-human IgG Fc (Biolegend, 409304) was added at 80 μL/well. The plate was incubated at 4° C. for 30 min. 150 μL of precooled PBS containing 1% of FBS was added into the 96-well plate after the co-incubation with the secondary antibody was finished. The 96-well plate was centrifuged at 300×g for 5 min and the supernatants were discarded. The above procedures were repeated once. The cells were resuspended in 100 μL of PBS containing 1% of FBS and detected on a flow cytometry (BD Accuri™ C6).

[5] = target: T3, human BCMA on cells (NCI-H929, U266B1, …); test: flow cytometry on NCI-H929 cells; NCI-H929 cells
Description: as §3

[6] = target: T1, recombinant human BCMA-his fusion …; test: ELISA, coated antigen
Description: Procedures: huBCMA-his and cynoBCMA-his antigens were prepared into 0.5 μg/mL coating solutions with PBS (pH 7.4). The coating solutions were added to a microplate at 100 μL/well and incubated at 4° C. overnight. The residual coating solution was discarded before 3% BSA was added at 300 μL/well, and the plate was blocked for 3 h at room temperature. The microplate was washed once with PB ST at 300 The stock humanized monoclonal antibody solutions were serially 3-fold diluted to the 11th concentration. The dilutions were added to the microplate at 100 μL/well. After a 1-h incubation at room temperature, the microplate was washed thrice with PBST at 300 The HRP-conjugated 6*His, His-Tag antibody was 25,000-fold diluted with 1% BSA-PBST and added at 100 After another 1-h incubation at room temperature, the microplate was washed thrice with PB ST at 300 μL/well and dried. The TMB chromogenic solution was added at 100 μL. After a 5-min reaction at room temperature, 2 M H2504 was added at 100 μL/well to terminate the reaction. The microplate was placed on a microplate reader (Molecular Devices, SPECTRA Max plus 384) and the absorbance OD450 value was read at 450 nm wavelength.

[7] = target: T3, human BCMA on cells (NCI-H929, U266B1, …); test: flow cytometry on NCI-H929 cells
Description: as §3

[8] = target: T1, recombinant human BCMA-his fusion …; test: competitive ELISA, coated huBCMA-his, competitor 83A10-biotin
Description: as §1

[9] = target: T1, recombinant human BCMA-his fusion …; test: SPR (Biacore T200), anti-His capture on CM5, 1:1 fit
Description: In this example, the antigen-antibody binding kinetics and affinity were determined by the BIACORE method.
Procedures: The anti-histidine antibody (GE, His capture Kit, Cat. No. 28995056) was conjugated to the Sereis S Sensor Chip CMS to capture the test articles, thus acquiring the binding kinetic and affinity data of the antigen, as an analyte, to the test articles. The initial concentration for detecting the binding of the antigen and the test articles was 10 nM. […] The Start up flushing process (1×HBS-EP+buffer) was performed at least thrice before loading to equilibrate the system. The association and dissociation tendencies between the antigen and the test articles were detected. When the dissociation was completed, a regeneration reagent was loaded for regeneration before the detection of the next concentration was performed. After the detection was finished, the data were fitted by using a 1:1 Binding fitting mode in data analysis software (Biacore T200 Evaluation Software).

[10] = target: T4, cynomolgus monkey BCMA on HEK293 cynoBCMA cells (cynomolgus monkey, UniProt A0A2K5UD97 1-183); test: flow cytometry on HEK293 cynoBCMA cells; HEK293 cynoBCMA cells
T4 construct: whole, on cells
Description: (§4) The affinities of the 3 mouse antibodies for cell surface BCMA antigen were assessed using FACS. Materials: cell lines NCI-H929, U266B1, HEK293 cynoBCMA and HEK293; PBS buffer; FBS (fetal bovine serum; Gibco, 10099141); PE goat anti-mouse IgG Fc (Biolegend, 405307). Procedures: The cells were resuspended in PBS to prepare cell suspensions containing 200,000 cells. Mouse BCMA antibodies were added to a 96-well plate at 50 μL/well and serially 3-fold diluted from 3000 nM. The plate was incubated for 1 h at 4° C. 150 μL of precooled PBS containing 1% of FBS was added into the 96-well plate after the co-incubation with the primary antibody was finished. The mixtures were centrifuged at 300×g for 5 min and the supernatants were discarded. The above procedures were repeated once. The fluorescent secondary antibody PE goat anti-mouse IgG Fc was added at 80 μL/well. The plate was incubated at 4° C. for 30 min. 150 μL of precooled PBS containing 1% of FBS was added into the 96-well plate after the co-incubation with the secondary antibody was finished. The mixtures were uniformly mixed with a pipette. The 96-well plate was centrifuged at 300×g for 5 min in a plate centrifuge and the supernatants were discarded. The above procedures were repeated once. The cells were resuspended in 100 μL of PBS containing 1% of FBS and detected on a flow cytometry (BD Accuri™ C6).

[11] = target: T5, recombinant cynomolgus monkey BCMA-huFc (cynomolgus monkey; human); test: indirect ELISA, coated antigen
T5 construct: also called cynoBCMA-huFc
Description: as §2, with “PBST” for “PB ST”, “three mouse BCMA” for “human-mouse chimeric monoclonal”, “7th” for “9th”, “HRP goat anti-mouse” for “mouse anti-human”, “IgG” for “IgG Fc”, “antibody” for “antibody [HRP] mAb”

[12] = target: T6, recombinant human BCMA-huFc fusion protein (human); test: indirect ELISA, coated antigen
T6 construct: also called huBCMA-huFc
Description: as §2, with “PBST” for “PB ST”, “three mouse BCMA” for “human-mouse chimeric monoclonal”, “7th” for “9th”, “HRP goat anti-mouse” for “mouse anti-human”, “IgG” for “IgG Fc”, “antibody” for “antibody [HRP] mAb”

[13] = target: T3, human BCMA on cells (NCI-H929, U266B1, …); test: flow cytometry on NCI-H929 cells; remark: listed apart in the source
Description: as §4

[14] = target: T3, human BCMA on cells (NCI-H929, U266B1, …); test: flow cytometry on U266B1 cells; remark: listed apart in the source
Description: as §4

T4 sequence (A0A2K5UD97 entry or part of it): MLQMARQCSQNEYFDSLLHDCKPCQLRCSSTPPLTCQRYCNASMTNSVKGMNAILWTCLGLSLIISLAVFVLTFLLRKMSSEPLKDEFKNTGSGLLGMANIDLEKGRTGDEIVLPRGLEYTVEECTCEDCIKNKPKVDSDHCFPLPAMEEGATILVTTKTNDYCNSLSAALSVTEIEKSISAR
T5 sequence (chain, as listed by the source limits assumed): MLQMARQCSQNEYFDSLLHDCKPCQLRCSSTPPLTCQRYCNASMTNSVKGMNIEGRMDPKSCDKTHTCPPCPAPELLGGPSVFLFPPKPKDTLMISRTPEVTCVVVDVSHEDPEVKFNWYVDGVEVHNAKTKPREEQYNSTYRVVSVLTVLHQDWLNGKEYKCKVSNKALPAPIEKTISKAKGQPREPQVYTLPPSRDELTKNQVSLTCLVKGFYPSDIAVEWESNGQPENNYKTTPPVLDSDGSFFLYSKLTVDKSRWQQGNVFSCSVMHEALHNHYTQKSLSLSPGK

B1: human-mouse chimeric antibody c-mAb1 (antibody, human IgG1, V domains shown)
VH: EVQLQQSGPELVKPGTSVEMSCKASGYTFTDYNIHWVRQRHGESLEWLGYINPNNGVTNFNQKFKGKATLTVNKSSSTAYMELRSLTSDDSAVYYCSSGLFDGYPFPYWGQGTLVTVSA
VL: DIVLTQSPASLVVSLGQRATISCRASKSVSTSGYNYIHWYQQKPGQPPKLLIFLASNLKSGVPARFSGGGSGTDFTLNIHPVEEDDAATYFCQHNRELPYTFGGGTKVEIK
notes: not shown: human IgG1 heavy chain constant region, GenBank No. AK303185.1; human kappa light chain constant region, GenBank No. MG815648.1
B1 gave an IC50 [1] of 0.0114 µg/mL, a competition [2] of 70% and an EC50 [3] of 0.647 nM. For the same binder, the EC50 [4] was 1.9 nM, the EC50 [5] was 7.5 nM and the EC50 [6] was 0.00158 nM. It also gave an EC50 [7] of 7.5 nM, an IC50 [8] of 3.16 µg/mL and a Kd [9] of 0.247 nM. It also gave a koff [9] of 0.00202 s⁻¹ and a kon [9] of 8.18e+06 M⁻¹ s⁻¹.

B2: mouse monoclonal antibody 211B11H10G5 (antibody, V domains shown)
VH: EVQLQQSGPELVKPGASVKILCKASGYTITDYNMDWVKRSHGKSLEWIGNINPHNGGSIYNQKFKGKATLTVDKSSSTAFMELRSLTSEDTAVYYCARGDATLVLDYWGQGTSLTVSS
VL: DIVLTQSPASLAVSLGQRATISCRASKSVSTSGLSYMHWYQQKPGQPPKVLIYLASNLESGVPARFSGSGSGTDFTLNIHPVEEEDAATYYCQHSRELPPTFGAGTKLELK
notes: detected with anti-mouse IgG; also called Clone 211B11H10G5; BCMA-HC3/BCMA-LC3
In the case of B2, the EC50 [10] is reported as 30.9 nM, the EC50 [11] is reported as 0.0309 nM and the EC50 [12] is reported as 0.0492 nM. For the same binder, the EC50 [13] was 11.9 nM and the EC50 [14] was 24.5 nM.
